As a reminder, the Kd is the concentration at which binding is half-saturated. A low value points to tighter binding.

One series deals with T1, LbuC2c2-dHEPN2 (Leptotrichia buccalis, UniProt C7NBY4 1-1159, R1048A;H1053A).
T1 sequence: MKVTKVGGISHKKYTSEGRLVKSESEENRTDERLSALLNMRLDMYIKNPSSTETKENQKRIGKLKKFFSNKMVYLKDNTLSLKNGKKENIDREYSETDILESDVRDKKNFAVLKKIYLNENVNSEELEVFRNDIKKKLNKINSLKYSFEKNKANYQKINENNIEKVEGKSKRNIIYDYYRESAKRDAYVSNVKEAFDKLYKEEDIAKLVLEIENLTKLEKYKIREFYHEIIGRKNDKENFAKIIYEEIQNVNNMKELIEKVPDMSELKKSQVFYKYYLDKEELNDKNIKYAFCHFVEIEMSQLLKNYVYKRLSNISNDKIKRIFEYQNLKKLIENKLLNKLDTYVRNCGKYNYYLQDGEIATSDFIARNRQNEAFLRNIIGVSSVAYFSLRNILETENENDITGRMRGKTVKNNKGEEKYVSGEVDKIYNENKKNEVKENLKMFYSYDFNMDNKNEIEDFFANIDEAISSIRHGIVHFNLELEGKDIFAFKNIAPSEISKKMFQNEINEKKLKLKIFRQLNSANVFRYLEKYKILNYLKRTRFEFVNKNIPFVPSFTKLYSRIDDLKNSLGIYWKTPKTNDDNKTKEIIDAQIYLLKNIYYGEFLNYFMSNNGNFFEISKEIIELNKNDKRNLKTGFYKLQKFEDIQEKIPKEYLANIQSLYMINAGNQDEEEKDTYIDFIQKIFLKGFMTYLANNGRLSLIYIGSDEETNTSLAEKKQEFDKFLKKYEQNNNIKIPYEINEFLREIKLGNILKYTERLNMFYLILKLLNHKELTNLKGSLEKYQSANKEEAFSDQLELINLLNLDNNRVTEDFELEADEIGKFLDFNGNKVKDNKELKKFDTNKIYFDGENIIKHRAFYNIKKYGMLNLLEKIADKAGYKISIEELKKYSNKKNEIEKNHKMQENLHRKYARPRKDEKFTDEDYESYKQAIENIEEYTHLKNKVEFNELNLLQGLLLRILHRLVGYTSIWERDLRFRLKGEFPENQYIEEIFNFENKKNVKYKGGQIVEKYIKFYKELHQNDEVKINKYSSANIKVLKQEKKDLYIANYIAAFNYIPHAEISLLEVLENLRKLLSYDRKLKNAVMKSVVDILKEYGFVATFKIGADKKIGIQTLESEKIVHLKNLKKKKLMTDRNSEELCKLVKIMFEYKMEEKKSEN
Briefly: filter binding.

The target of series [1] is T2, LbuC2c2-dHEPN1/dHEPN2 (Leptotrichia buccalis, UniProt C7NBY4 1-1159, R472A;H477A;R1048A;H1053A).
T2 sequence: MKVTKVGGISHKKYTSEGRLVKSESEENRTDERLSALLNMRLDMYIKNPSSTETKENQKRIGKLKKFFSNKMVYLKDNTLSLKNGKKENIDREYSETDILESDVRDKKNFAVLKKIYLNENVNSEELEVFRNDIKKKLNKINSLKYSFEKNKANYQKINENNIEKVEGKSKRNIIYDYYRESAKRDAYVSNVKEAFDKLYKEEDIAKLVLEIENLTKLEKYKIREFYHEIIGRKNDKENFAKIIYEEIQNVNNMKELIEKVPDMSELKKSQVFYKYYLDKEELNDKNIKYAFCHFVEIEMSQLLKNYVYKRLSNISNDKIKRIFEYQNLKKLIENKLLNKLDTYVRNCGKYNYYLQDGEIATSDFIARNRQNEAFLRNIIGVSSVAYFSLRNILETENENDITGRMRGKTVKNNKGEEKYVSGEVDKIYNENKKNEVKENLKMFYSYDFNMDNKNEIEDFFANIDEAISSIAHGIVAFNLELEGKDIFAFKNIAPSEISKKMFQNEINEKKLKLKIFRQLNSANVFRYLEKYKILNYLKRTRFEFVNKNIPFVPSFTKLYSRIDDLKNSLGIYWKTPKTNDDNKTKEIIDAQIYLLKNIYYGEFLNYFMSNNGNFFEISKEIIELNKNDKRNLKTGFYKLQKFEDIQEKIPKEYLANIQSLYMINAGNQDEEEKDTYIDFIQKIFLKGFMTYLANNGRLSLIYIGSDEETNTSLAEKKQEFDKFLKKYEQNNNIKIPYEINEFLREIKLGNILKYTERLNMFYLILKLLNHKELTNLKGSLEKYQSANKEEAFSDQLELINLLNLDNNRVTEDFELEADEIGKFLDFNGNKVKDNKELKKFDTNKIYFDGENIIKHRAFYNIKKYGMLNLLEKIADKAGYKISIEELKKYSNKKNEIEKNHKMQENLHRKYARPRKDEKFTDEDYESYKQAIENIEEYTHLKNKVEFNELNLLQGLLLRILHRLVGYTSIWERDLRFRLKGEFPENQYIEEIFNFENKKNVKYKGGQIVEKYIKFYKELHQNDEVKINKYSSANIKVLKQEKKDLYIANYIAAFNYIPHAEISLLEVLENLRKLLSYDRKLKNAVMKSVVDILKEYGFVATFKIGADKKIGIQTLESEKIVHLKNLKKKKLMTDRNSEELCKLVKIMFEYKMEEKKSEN
Briefly: filter binding.

A further series addresses T3, LbuC2c2-dHEPN1 (Leptotrichia buccalis, UniProt C7NBY4 1-1159, R472A;H477A).
T3 sequence: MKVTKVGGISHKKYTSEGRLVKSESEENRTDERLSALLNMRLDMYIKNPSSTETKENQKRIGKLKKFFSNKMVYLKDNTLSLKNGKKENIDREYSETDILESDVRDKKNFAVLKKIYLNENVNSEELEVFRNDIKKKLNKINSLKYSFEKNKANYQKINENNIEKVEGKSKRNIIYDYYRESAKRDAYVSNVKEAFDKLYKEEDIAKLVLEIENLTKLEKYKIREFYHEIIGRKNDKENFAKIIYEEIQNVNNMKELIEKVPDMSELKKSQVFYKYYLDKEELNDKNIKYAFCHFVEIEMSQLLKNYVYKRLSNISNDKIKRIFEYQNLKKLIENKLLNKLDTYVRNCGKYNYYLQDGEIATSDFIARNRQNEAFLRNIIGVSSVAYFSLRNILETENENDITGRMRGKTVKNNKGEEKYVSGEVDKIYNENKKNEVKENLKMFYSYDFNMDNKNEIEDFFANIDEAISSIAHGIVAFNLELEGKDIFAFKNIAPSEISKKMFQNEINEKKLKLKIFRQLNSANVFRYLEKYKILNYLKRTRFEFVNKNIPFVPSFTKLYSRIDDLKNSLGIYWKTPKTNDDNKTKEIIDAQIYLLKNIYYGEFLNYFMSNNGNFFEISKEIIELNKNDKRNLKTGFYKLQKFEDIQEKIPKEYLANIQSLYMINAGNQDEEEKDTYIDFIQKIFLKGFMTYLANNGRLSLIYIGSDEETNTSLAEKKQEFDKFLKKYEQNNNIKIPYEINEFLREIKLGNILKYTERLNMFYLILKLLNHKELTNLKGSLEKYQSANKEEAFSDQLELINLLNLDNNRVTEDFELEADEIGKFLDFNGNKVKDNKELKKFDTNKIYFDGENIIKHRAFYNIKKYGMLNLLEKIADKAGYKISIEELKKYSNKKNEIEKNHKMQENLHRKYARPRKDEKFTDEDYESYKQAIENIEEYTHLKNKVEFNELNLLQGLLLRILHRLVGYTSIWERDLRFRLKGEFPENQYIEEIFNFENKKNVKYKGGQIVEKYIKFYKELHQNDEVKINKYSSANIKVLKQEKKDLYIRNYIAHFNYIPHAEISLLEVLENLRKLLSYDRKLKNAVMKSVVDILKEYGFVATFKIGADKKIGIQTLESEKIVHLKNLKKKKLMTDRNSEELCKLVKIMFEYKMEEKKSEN
Put plainly: filter binding.

For another series, the target named is T4, LbuC2c2-R1079A (Leptotrichia buccalis, UniProt C7NBY4 1-1159, R1079A).
T4 sequence: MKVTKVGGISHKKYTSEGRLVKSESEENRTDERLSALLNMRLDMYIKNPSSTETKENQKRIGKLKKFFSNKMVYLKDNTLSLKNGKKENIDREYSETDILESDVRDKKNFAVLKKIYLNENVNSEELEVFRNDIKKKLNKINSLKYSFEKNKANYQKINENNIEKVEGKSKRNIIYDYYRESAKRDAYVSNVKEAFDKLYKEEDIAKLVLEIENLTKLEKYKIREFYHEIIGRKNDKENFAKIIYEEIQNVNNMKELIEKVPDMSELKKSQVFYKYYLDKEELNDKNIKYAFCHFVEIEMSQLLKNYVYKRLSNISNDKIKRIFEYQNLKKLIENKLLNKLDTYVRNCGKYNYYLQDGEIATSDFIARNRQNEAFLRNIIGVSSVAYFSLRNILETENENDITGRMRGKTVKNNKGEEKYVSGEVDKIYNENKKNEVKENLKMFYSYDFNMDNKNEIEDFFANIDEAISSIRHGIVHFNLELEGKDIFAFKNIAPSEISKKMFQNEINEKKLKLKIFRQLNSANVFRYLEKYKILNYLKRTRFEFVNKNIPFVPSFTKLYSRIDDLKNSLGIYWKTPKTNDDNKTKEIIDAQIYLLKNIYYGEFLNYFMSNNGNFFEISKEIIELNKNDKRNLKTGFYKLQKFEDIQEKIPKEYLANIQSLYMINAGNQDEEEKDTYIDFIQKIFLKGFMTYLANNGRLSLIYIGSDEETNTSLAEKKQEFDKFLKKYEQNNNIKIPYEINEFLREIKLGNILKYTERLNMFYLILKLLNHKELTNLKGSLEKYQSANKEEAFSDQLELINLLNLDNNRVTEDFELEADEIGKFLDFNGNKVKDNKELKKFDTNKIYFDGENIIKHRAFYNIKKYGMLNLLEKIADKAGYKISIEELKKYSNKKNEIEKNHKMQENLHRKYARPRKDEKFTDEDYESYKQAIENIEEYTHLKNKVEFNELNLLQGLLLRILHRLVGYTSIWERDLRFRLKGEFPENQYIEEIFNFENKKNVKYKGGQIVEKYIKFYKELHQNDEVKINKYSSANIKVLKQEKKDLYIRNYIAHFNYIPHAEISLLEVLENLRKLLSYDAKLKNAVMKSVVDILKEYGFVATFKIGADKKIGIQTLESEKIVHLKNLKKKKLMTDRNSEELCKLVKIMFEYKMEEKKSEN
Put plainly: filter binding.

The target in series [2] is T2, LbuC2c2-dHEPN1/dHEPN2. Put plainly: EMSA. A general note: A gel shift assay detects complexes by their altered migration in electrophoresis.

B1: mature crRNA-A_GG (crLbu_A_GG_AES432) (structured_RNA)
RNA: GGCCACCCCAAAAAUGAAGGGGACUAAAACAGGGGCAGAGAUGAUGACCCU
Take B1: the equilibrium dissociation constant (Kd) with LbuC2c2-dHEPN2 turned out to be 11.5 ± 2.5 nM; with LbuC2c2-dHEPN1/dHEPN2 [1] it was 43.3 ± 11.5 nM; with LbuC2c2-dHEPN1, 15.2 ± 3.2 nM.

B2: mature crRNA-A_GA (crLbu_A_mature_GA_SCK340) (structured_RNA)
RNA: GACCACCCCAAAAAUGAAGGGGACUAAAACAGGGGCAGAGAUGAUGACCCU
B2: the Kd with LbuC2c2-R1079A is 2.52 ± 0.5 nM.

B3: crRNA-A_GG guide + on-target A ssRNA (mixed)
RNA 1: GGCCACCCCAAAAAUGAAGGGGACUAAAACAGGGGCAGAGAUGAUGACCCU
RNA 2: GGCACACCCGCAGGGGGGAGCCAAAAGGGUCAUCAUCUCUGCCCCCACAGCAGAAGCCCC
Regarding B3, in the series with LbuC2c2-dHEPN1/dHEPN2 [2], the Kd came out at 1.62 ± 0.43 nM.

For the origin of these results see paper PMC5576363.
